Test results from patent US20230312689A1 (NATIONAL UNIVERSITY CORPORATION KUMAMOTO UNIVERSITY, published 2023).

B1: CTMA9-105 (antibody, V domains shown)
VH: EVQLVESGGGLIQPGGSLRLSCAASGITVSSNYMSWVRQAPGKGLEWVSLIYSGGSTYYADSVKGRFTISRDNSKNTLYLQMNSLRAEDTAVYYCARDLEEAGGMDVWGQGTTVTVSS
VL: DIVMTQSPGTLSLSPGERATLSCRASQSVPSIYLAWYQQRPGQAPRLLIYGASSRATGIPDRFSGSGSGTDFTLTISRLEPEDFAVYYCQQYGSSPGTFGQGTKVEIK
B2: CSSA10-121 (antibody, V domains shown)
VH: EVQLVESGGGLIQPGGSLRLSCAASGLTVSRNYMSWVRQAPGRGLEWVSLIYSGGSTYYADSVKGRFTISRDSSKNTLYLQMNSLRAEDTAVYYCARPIVGARAGMDVWGQGTTVTVSS
VL: DIRMTQSPSSLSASVGDRVTITCQASQDISNYLNWYQQKPGKAPKLLIYDASNLETGVPSRFSGSGSGTDFTFTISSLQPEDIATYYCQQYDNLPVTFGQGTRLEIK

Assays:
[1] = biological target: SARS-CoV-2 spike protein, European type SD614G (SARS-CoV-2, UniProt P0DTC2 14-1273); test: cell-based or functional assay
[2] = biological target: spike protein of SARS-CoV-2 mutant strain B.1.351 (SARS-CoV-2); test: cell-based or functional assay

Binder	neutralizing activity (IC50 value), pseudovirus, 293F/ACE2/TMPRSS2 cells [1] [µg/mL]	neutralizing activity (IC50 value), pseudovirus, Caco-2 cells [1] [µg/mL]	neutralizing activity (IC50 value), pseudovirus, Calu-3 cells [1] [µg/mL]	IC50, pseudovirus neutralization, 293FT/DSP/ACE2/TMPRSS2 cells [2] [µg/mL]
B1	0.0035	0.00092	0.0019	0.021
B2	0.018	0.015	0.12	–
